Data: ChEMBL document CHEMBL1135258, “Substrate spectrum of tyrocidine thioesterase probed with randomized peptide N-acetylcysteamine thioesters” (Bioorg Med Chem Lett, 2002)

Tests used:
Details in all cases: Brevibacillus brevis
[1] = substrate: CC(=O)NCCSC(=O)[C@H](CC(C)C)NC(=O)[C@H](CCCN)NC(=O)[C@@H](NC(=O)[C@H](CC(N)=O)NC(=O)[C@H](CCC(N)=O)NC(=O)[C@H](CC(N)=O)NC(=O)[C@@H](Cc1ccccc1)NC(=O)[C@H](Cc1ccccc1)NC(=O)[C@@H]1CCCN1C(=O)[C@H](N)Cc1ccccc1)C(C)C; assay: (§1) Apparent kinetic constant (Km) determined for tyrocidine thioesterase amplified from Bacillus brevis (ATCC8185)
[2] = substrate: CC(=O)NCCSC(=O)[C@H](CC(C)C)NC(=O)[C@H](CCCN)NC(=O)[C@@H](NC(=O)[C@H](Cc1ccc(O)cc1)NC(=O)[C@H](CC(N)=O)NC(=O)[C@H](CC(N)=O)NC(=O)[C@@H](Cc1ccccc1)NC(=O)[C@H](Cc1ccccc1)NC(=O)[C@@H]1CCCN1C(=O)[C@H](N)Cc1ccccc1)C(C)C; assay: as §1
[3] = substrate: CC(=O)NCCSC(=O)[C@H](CC(C)C)NC(=O)[C@H](CCCN)NC(=O)[C@@H](NC(=O)[C@H](Cc1ccc(O)cc1)NC(=O)[C@H](CCC(N)=O)NC(=O)[C@@H](NC(=O)[C@@H](Cc1ccccc1)NC(=O)[C@H](Cc1ccccc1)NC(=O)[C@@H]1CCCN1C(=O)[C@H](N)Cc1ccccc1)C(C)C)C(C)C; assay: as §1
[4] = substrate: CC(=O)NCCSC(=O)[C@H](CC(C)C)NC(=O)[C@H](CCCN)NC(=O)[C@@H](NC(=O)[C@H](Cc1ccc(O)cc1)NC(=O)[C@H](CCC(N)=O)NC(=O)[C@H](CC(C)C)NC(=O)[C@@H](Cc1ccccc1)NC(=O)[C@H](Cc1ccccc1)NC(=O)[C@@H]1CCCN1C(=O)[C@H](N)Cc1ccccc1)C(C)C; assay: as §1
[5] = substrate: CC(=O)NCCSC(=O)[C@H](CC(C)C)NC(=O)[C@H](CCCN)NC(=O)[C@@H](NC(=O)[C@H](Cc1ccc(O)cc1)NC(=O)[C@H](CCC(N)=O)NC(=O)[C@H](CC(N)=O)NC(=O)CNC(=O)[C@H](Cc1ccccc1)NC(=O)[C@@H]1CCCN1C(=O)[C@H](N)Cc1ccccc1)C(C)C; assay: as §1
[6] = substrate: CC(=O)NCCSC(=O)[C@H](CC(C)C)NC(=O)[C@H](CCCN)NC(=O)[C@@H](NC(=O)[C@H](Cc1ccc(O)cc1)NC(=O)[C@H](CCC(N)=O)NC(=O)[C@H](CC(N)=O)NC(=O)[C@@H](Cc1ccccc1)NC(=O)[C@H](CC(N)=O)NC(=O)[C@@H]1CCCN1C(=O)[C@H](N)Cc1ccccc1)C(C)C; assay: as §1
[7] = substrate: CC(=O)NCCSC(=O)[C@H](CC(C)C)NC(=O)[C@H](CCCN)NC(=O)[C@@H](NC(=O)[C@H](Cc1ccc(O)cc1)NC(=O)[C@H](CCC(N)=O)NC(=O)[C@H](CC(N)=O)NC(=O)[C@@H](Cc1ccccc1)NC(=O)[C@H](Cc1ccccc1)NC(=O)[C@H](CC(=O)O)NC(=O)[C@H](N)Cc1ccccc1)C(C)C; assay: as §1
[8] = substrate: CC(=O)NCCSC(=O)[C@H](CC(C)C)NC(=O)[C@H](CCCN)NC(=O)[C@@H](NC(=O)[C@H](Cc1ccc(O)cc1)NC(=O)[C@H](CCC(N)=O)NC(=O)[C@H](CC(N)=O)NC(=O)[C@@H]1CCCN1C(=O)[C@H](Cc1ccccc1)NC(=O)[C@@H]1CCCN1C(=O)[C@H](N)Cc1ccccc1)C(C)C; assay: as §1
[9] = substrate: CC(=O)NCCSC(=O)[C@H](CC(C)C)NC(=O)[C@H](CCCN)NC(=O)[C@@H](NC(=O)[C@H](Cc1ccc(O)cc1)NC(=O)[C@H](CCC(N)=O)NC(=O)[C@H](CC(N)=O)NC(=O)[C@H](CCCN=C(N)N)NC(=O)[C@H](Cc1ccccc1)NC(=O)[C@@H]1CCCN1C(=O)[C@H](N)Cc1ccccc1)C(C)C; assay: as §1
[10] = substrate: CC(=O)NCCSC(=O)[C@H](CC(C)C)NC(=O)[C@H](CCCN)NC(=O)[C@@H](NC(=O)[C@H](Cc1ccc(O)cc1)NC(=O)[C@H](CCC(N)=O)NC(=O)[C@H](CC(N)=O)NC(=O)[C@H](CO)NC(=O)[C@H](Cc1ccccc1)NC(=O)[C@@H]1CCCN1C(=O)[C@H](N)Cc1ccccc1)C(C)C; assay: as §1
[11] = substrate: CC(=O)NCCSC(=O)[C@H](CC(C)C)NC(=O)[C@H](CCCN)NC(=O)[C@@H](NC(=O)[C@H](Cc1ccc(O)cc1)NC(=O)[C@H](CCC(N)=O)NC(=O)[C@H](CC(N)=O)NC(=O)[C@H](Cc1c[nH]cn1)NC(=O)[C@H](Cc1ccccc1)NC(=O)[C@@H]1CCCN1C(=O)[C@H](N)Cc1ccccc1)C(C)C; assay: as §1
[12] = substrate: CC(=O)NCCSC(=O)[C@H](CC(C)C)NC(=O)[C@H](CCCN)NC(=O)[C@@H](NC(=O)[C@H](Cc1ccc(O)cc1)NC(=O)[C@H](CCC(N)=O)NC(=O)[C@H](CC(N)=O)NC(=O)[C@H](Cc1ccc(O)cc1)NC(=O)[C@H](Cc1ccccc1)NC(=O)[C@@H]1CCCN1C(=O)[C@H](N)Cc1ccccc1)C(C)C; assay: as §1
[13] = substrate: CC(=O)NCCSC(=O)[C@H](CC(C)C)NC(=O)[C@H](CCCN)NC(=O)[C@@H](NC(=O)[C@H](Cc1ccc(O)cc1)NC(=O)[C@H](CCC(N)=O)NC(=O)[C@H](CC(N)=O)NC(=O)[C@H](Cc1ccccc1)NC(=O)[C@H](Cc1ccccc1)NC(=O)[C@@H]1CCCN1C(=O)[C@H](N)Cc1ccccc1)C(C)C; assay: as §1
[14] = substrate: CC(=O)NCCSC(=O)[C@H](CC(C)C)NC(=O)[C@H](CCCN)NC(=O)[C@H](CCCN=C(N)N)NC(=O)[C@H](Cc1ccc(O)cc1)NC(=O)[C@H](CCC(N)=O)NC(=O)[C@H](CC(N)=O)NC(=O)[C@@H](Cc1ccccc1)NC(=O)[C@H](Cc1ccccc1)NC(=O)[C@@H]1CCCN1C(=O)[C@H](N)Cc1ccccc1; assay: as §1
[15] = substrate: CSCC[C@H](NC(=O)[C@H](Cc1ccccc1)NC(=O)[C@@H]1CCCN1C(=O)[C@H](N)Cc1ccccc1)C(=O)N[C@@H](CC(N)=O)C(=O)N[C@@H](CCC(N)=O)C(=O)N[C@@H](Cc1ccc(O)cc1)C(=O)N[C@H](C(=O)N[C@@H](CCCN)C(=O)N[C@@H](CC(C)C)C(=O)SCCNC(C)=O)C(C)C; assay: as §1

B1: Thioesterase GrsT homolog tycF (Brevibacillus brevis), O30412 (protein)
chain: MKLFCFPYAGGLPGIYYSWKSRLPPTFLEIDAFEVRPHIPQPNRDVFLPTSFYELLEDVCDRITPALTETPFAFFGHSMGGLVAFELTRKLMQKGAPLPQHLFLSASRAPHAYGKLAKTYNLPHDEFVEALRKLGGTPDDVLENQELLELFLPILRADFQAVQTYEMNPDLPRQVPVNMTVLYGTEDTIALEDIWAWRDYCQGACQFFPVSGGHFFIHHQTSPILEIIQNVLKEEKTVAIHSSF
With B1 the Km [1] was 7.6 µM, the Km [2] was 112 µM and the Km [3] was 25 µM. The Km [4] was 42 µM, the Km [5] was 22 µM and the Km [6] was 172 µM. It also gave a Km [7] of 96 µM, a Km [8] of 132 µM and a Km [9] of 24 µM. For the same protein, the Km [10] was 14 µM, the Km [11] was 82 µM and the Km [12] was 65 µM. It also gave a Km [13] of 4.8 µM, a Km [14] of 33 µM and a Km [15] of 20 µM.
